Results from patent US20100009923A1.

Molecular target: … (MimA2) presented by H-2D^b on peptide-pulsed RMA-S cells (mouse) (UniProt P01899)
Test: cell-based or functional assay

Chain of … (MimA2) presented by H-2D^b on peptide-pulsed RMA-S cells (mouse) (P01899 25-362): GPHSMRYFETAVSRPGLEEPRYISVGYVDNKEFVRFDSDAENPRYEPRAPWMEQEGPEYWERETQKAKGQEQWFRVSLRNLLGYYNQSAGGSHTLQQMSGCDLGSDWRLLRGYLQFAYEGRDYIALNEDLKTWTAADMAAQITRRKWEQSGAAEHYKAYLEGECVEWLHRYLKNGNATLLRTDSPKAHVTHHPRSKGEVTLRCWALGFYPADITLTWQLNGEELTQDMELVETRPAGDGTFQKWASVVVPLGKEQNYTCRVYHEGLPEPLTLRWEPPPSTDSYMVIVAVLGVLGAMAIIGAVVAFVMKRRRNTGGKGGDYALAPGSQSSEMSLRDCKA

Substance: TCR of the β cell-autoreactive CD8+ T cell clone AI4 (Vα8/Vβ2)
- peptide concentration giving half-maximal activity in the AI4 cytotoxicity assay (51Cr release, E:T 40, RMA-S targets): 10 pM
